Publication PMC6771824, “Topology and enzymatic properties of a canonical Polycomb repressive complex 1 isoform” (Febs Letters, 2019)

Key:
[1] = biological target: T1, RING1B (human, UniProt Q99496 1-336); assay: MST; UbcH5c labelled with NT-547 at 100 nM; RING1B (from 80 uM at 2x) or RING1B-PCGF2 (from 38 uM at 2x) in 16 serial dilutions; HEPES 50 mM pH 8, NaCl 75 mM, DTT 1 mM, Tween 0.05%; Monolith NT.115, LED 20%, MST power 40%; settings: both partners purified
T1 construct: RING1B, human, catalytic E3 ligase subunit of PRC1; called full length in the discussion; primers run from the second codon to the stop codon; no cleavage of the tag is described; also called strep-tagged RING1B; catalytic subunit RING1B; source: Sf21 insect cells (MultiBac baculovirus), alone or co-expressed with other PRC1 subunits; in lysate and purified (strep-tactin resin, two S200 SEC …)
T1 sequence (looked up): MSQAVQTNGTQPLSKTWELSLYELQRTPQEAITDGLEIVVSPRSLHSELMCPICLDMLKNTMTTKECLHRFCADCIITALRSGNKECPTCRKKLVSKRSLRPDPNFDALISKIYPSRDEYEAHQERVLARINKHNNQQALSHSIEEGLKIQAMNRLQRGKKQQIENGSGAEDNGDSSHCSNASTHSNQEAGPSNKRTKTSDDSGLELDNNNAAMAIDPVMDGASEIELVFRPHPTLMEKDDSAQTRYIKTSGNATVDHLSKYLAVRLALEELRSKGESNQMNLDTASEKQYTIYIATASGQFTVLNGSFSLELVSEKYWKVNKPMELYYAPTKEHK

[2] = biological target: T2, RING1B-PCGF2 heterodimer (human, UniProt Q99496 1-336; P35227 1-344); assay: as above; settings: both partners purified
T2 construct: RING1B, human, full length; the same chain as m1; PCGF2 (aka Mel18), human, full length; the same chain as m2; Pre-formed complex titrated as one molecule against UbcH5c; also called RING1B-PCGF2 subcomplex; source: Sf21 insect cells (MultiBac co-expression), purified (strep-tactin resin, two S200 SEC steps)
T2 sequence (looked up) 1: T1 sequence (looked up)
T2 sequence (looked up) 2: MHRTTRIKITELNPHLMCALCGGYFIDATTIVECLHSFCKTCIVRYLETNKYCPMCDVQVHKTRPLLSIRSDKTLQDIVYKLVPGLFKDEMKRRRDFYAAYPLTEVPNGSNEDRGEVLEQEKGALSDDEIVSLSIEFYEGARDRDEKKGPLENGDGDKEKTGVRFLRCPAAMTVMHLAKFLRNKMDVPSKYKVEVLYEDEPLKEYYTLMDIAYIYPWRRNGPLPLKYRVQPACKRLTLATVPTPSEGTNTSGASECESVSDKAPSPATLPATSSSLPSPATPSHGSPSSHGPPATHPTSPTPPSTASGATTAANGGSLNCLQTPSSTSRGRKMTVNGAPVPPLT

Kd [1]: 0.23 ± 0.08 µM
Kd [2]: 4.1 ± 1 µM
B1: UbcH5c (enzyme)
chain: not shown
modifications: NT-547 fluorescent dye on Cys85
notes: UbcH5c, ubiquitin-conjugating E2 enzyme; also called UbcH5c E2 enzyme; E2 enzyme; source: E. coli Rosetta (DE3), purified (GST resin, 3C cleavage, Ni-NTA flow-through, S200 SEC)
